{
  "source": "paper PMC4914108",
  "about": "(Nucleic Acids Research, 2016)",
  "binders": {"B1": {"name": "RacA C-terminal region, RacA(71-184) (domain or fragment, B. subtilis, UniProt P45870 71-184, looked up)", "chain": "RTGFLVQKTSSDTERRIEQLEQKLDTLLQQRQDESELMARMSELERQLKQKADEGVSYQLLQHRREIDDILADLQSLTSQMKEFTAHSIPETAAASEKTKTRKKPLLSLFKFQT"}, "B2": {"name": "DivIVA C-terminal domain, DivIVA(66-164) (domain or fragment, B. subtilis, UniProt P71021 66-164, looked up)", "chain": "TLNKSILVAQEAAEDVKRNSQKEAKLIVREAEKNADRIINESLSKSRKIAMEIEELKKQSKVFRTRFQMLIEAQLDLLKNDDWDHLLEYEVDAVFEEKE"}, "B3": {"name": "14mer ram centromere site (FP) (dsDNA)", "DNA 1": "TGACGCCGGCGTCA", "DNA 2": "TGACGCCGGCGTCA"}, "B4": {"name": "14mer ram site, 5-bromouracil (dsDNA)", "DNA 1": "TGACGCCGGCGTCA", "DNA 2": "TGACGCCGGCGTCA", "modifications": "thymines replaced with 5-bromouracil"}},
  "key": {"[1]": {"molecular_target": "B2", "test": "ITC"}, "[2]": {"molecular_target": "B1", "test": "ITC"}, "[3]": {"molecular_target": "B1", "test": "ITC", "remark": "listed apart in the source"}, "RacA C-domain": {"molecular_target": "T1, RacA C-domain (Bacillus subtilis, UniProt P45870 71-184)", "T1 sequence": "B1 chain", "test": "fluorescence polarization"}, "RacA DBD K15A": {"molecular_target": "T2, RacA DBD K15A (Bacillus subtilis, UniProt P45870 1-70, K15A)", "T2 sequence": "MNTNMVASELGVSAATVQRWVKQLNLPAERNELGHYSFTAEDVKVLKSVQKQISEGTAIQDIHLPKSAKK", "test": "fluorescence polarization"}, "RacA FL": {"molecular_target": "T3, RacA FL (Bacillus subtilis, UniProt P45870 1-184)", "T3 sequence": "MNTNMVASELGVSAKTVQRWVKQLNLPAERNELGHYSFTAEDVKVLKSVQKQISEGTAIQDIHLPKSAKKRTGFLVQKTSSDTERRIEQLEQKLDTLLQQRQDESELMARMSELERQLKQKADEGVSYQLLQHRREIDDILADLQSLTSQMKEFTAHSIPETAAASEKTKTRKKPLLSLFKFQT", "test": "fluorescence polarization"}, "RacA DBD": {"molecular_target": "T4, RacA DBD (Bacillus subtilis, UniProt P45870 1-70)", "T4 sequence": "T2 sequence with A15K", "test": "fluorescence polarization"}, "RacA DBD R30A": {"molecular_target": "T5, RacA DBD R30A (Bacillus subtilis, UniProt P45870 1-70, R30A)", "T5 sequence": "T2 sequence with A15K, R30A", "test": "fluorescence polarization"}, "[4]": {"molecular_target": "T6, RacA from FL crystals (proteolyzed) (Bacillus subtilis, UniProt P45870 1-64)", "T6 sequence": "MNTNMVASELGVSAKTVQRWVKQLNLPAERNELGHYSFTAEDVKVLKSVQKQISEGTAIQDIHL", "test": "X-ray crystallography"}},
  "note": "Changes are numbered by the printed parent chain. Read-outs that look alike come from different tables or passages of the source.",
  "data": [
    {"binder": "B1", "values": [
      {"measurement": "stoichiometry N", "setting": "[1]", "value": 1}
    ]},
    {"binder": "B2", "values": [
      {"measurement": "Kd", "setting": "[2]", "value": 1.9, "unit": "µM"},
      {"measurement": "Kd", "setting": "[3]", "value": 1.5, "unit": "µM"},
      {"measurement": "stoichiometry N", "setting": "[3]", "value": 1}
    ]},
    {"binder": "B3", "values": [
      {"measurement": "binding result", "setting": "RacA C-domain", "value": "no binding"},
      {"measurement": "Kd", "setting": "RacA DBD K15A", "value": "~50", "unit": "µM"},
      {"measurement": "Kd", "setting": "RacA FL", "value": "0.0584 ± 0.0003", "unit": "µM"},
      {"measurement": "Kd", "setting": "RacA DBD", "value": "9.2 ± 4", "unit": "µM"},
      {"measurement": "Kd", "setting": "RacA DBD R30A", "value": "~50", "unit": "µM"}
    ]},
    {"binder": "B4", "values": [
      {"measurement": "binding result", "setting": "[4]", "value": "binds"}
    ]}
  ]
}
